{"source": "paper PMC12525431", "about": "(International Journal of Molecular Sciences, 2025)", "binders": {"B1": {"name": "peptide N7 (16aa peptide of Hsp70) (peptide)", "peptide": "SDNQPGVLIQVYEGEK", "notes": "Hsp70, human; Found by MALDI-TOF in a trypsin hydrolysate of recombinant human Hsp70, then synthesised; also called N7 peptide; Hsp70 N7 peptide; source: synthetic peptide (Fmoc, purified by HPLC)"}}, "molecular_target": "sTREM-1 (UniProt Q9NP99-2 21-150, labelled with Alexa Fluor 488 (Protein Labeling Kit))", "sequence (Q9NP99 other isoform, or with tags, fused parts or gaps)": "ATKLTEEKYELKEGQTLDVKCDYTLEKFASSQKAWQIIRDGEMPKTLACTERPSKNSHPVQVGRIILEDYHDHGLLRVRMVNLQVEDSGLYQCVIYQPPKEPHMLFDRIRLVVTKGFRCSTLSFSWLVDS", "experiment": "MST; sTREM-1 labelled with Alexa Fluor 488; peptide in 16 concentrations by sequential dilution; 30 min in the dark at room temperature; Monolith NT.115, 8% IR laser power; at least three replicates", "conditions": "both partners purified", "data": [{"binder": "B1", "values": [{"measurement": "Kd", "result": 1.6, "unit": "nM"}]}]}
